Test results published in article PMC11546298.

Target: eYFP-MotD (P. aeruginosa)
Assay: FRET or BRET

eCFP-MotY (from UniProt A0A0H2ZD91 1-321) (natural protein)
FRET efficiency (E): 1.54%
